Measurements taken from patent US10487307B2, “Culture method for pluripotent stem cells” (FUJIFILM CORPORATION, priority 2013, dated 2019).

What was measured:
human iPS cells ("Tic") = assay: Cell adhesiveness evaluation 1 (ALP activity of adhesive iPS cells); assay type: cell-based; details: added amount 200 pmol/cm^2; 30,000 cells/well, 24 hours; natural vitronectin (sample 15) = 100%; n=3
In short: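 Peptides and controls were adsorbed onto wells for 2 h at 37 °C. Single-cell human iPS cells in TeSR2 with 10 μM Y-27362 were seeded at 30,000 cells/well. After 24 h, non-adherent cells were washed off and adherent cells fixed; cell number came from ALP activity via a calibration curve. Adhesion is expressed relative to natural vitronectin (100%), n=3.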

iPS cells [1] = assay: Growth evaluation, growth curves over 8 days; assay type: cell-based, human
Protocol: The iPS cells collected in the same manner as in <Cell adhesiveness evaluation 1> were seeded into a 96-well plate, onto which RCP-1, RCP-21, and natural human vitronectin were adsorbed, at a ratio of 250 cells/well and cultured for 8 days in a 5% CO2 incubator at 37° C. The number of adhesive cells after different days of culture was measured in the same manner as in <Cell adhesiveness evaluation 1>, thereby obtaining growth curves. […] In FIG. 2, a black rhombus indicates a case using RCP-1, and a black square indicates a case using RCP-21.
From the increase and decrease in the obtained number of cells, the doubling time was calculated. As a result, it was confirmed that it takes 46.4±2.1 hours for the number of cells to be doubled in a case where RCP-1 is used, and 67.7±2.1 hours in a case where RCP-21 is used.

iPS cells [2] = assay: Evaluation of maintenance of undifferentiated state (reference examples); assay type: cell-based, human
Protocol: iPS cells collected in the same manner as in <Cell adhesiveness evaluation 1> were suspended in TeSR2. The iPS cells were seeded into 6-well plate (Tissue culture-treated, Falcon), onto which each of the samples 1, 2, 5, 6, and 7 used in <Cell adhesiveness evaluation 1> was adsorbed in the same manner as in <Cell adhesiveness evaluation 1>, and cultured in a CO2 incubator at 37° C. Except for the day after the seeding, the medium was replaced every day. In the same method as described above, the cells were subcultured every six days.
After being cultured for 1 month under the conditions described above, the cells were immobilized using 4% paraformaldehyde and treated with 1% Triton-X/PBS so as to enhance the membrane permeability. After the cells were subjected to a blocking treatment using an Image IT Signal Enhancer (Invitrogen), an anti-human NANOG antibody (AF 1997, R&D Systems, Inc.), an Alexa Fluor 555 binding rabbit anti-goat IgG antibody (Invitrogen), and DAPI (4′,6-diamidino-2-phenylindole, Dojindo Molecular Technologies, Inc.) were added thereto for labeling, and the cells were imaged using a fluorescence microscope.
FIGS. 3A and 4A show the iPS cells cultured on RCP-1; FIGS. 3B and 4B show the iPS cells cultured on RCP-11; FIGS. 3C and 4C show the iPS cells cultured on natural human vitronectin; FIGS. 3D and 4D show the iPS cells cultured on rLaminin-5; and FIGS. 3E and 4E show the iPS cells cultured on rLaminin-511. The scale bar in the images indicates […]. In FIGS. 3A to 3E, the images on the left side are full images of the colony, and the images on the right side are magnified images. In FIGS. 4A to 4E, the images on the left side are images of the cells stained with DAPI, and the images on the right side are images of the cells stained with an anti-NANOG antibody. The scale bar in FIGS. 3A to 4E indicates 200 μm.

B1: RCP-21: comparative polypeptide, SEQ ID NO: 26; positions 1-459, having the sequence of human vitronectin (protein)
chain: GPLGDQESCKGRCTEGFNVDKKCQCDELCSYYQSCCTDYTAECKPQVTRGDVFTMPEDEYTVYDDGEEKNNATVHEQVGGPSLTSDLQAQSKGNPEQTPVLKPEEEAPAPEVGASKPEGIDSRPETLHPGRPQPPAEEELCSGKPFDAFTDLKNGSLFAFRGQYCYELDEKAVRPGYPKLIRDVWGIEGPIDAAFTRINCQGKTYLFKGSQYWRFEDGVLDPDYPRNISDGFDGIPDNVDAALALPAHSYSGRERVYFFKGKQYWEYQFQHQPSQEECEGSSLSAVFEHFAMMQRDSWEDIFELLFWGRTSAGTRQPQFISRDWHGVPGQVDAAMAGRIYISGMAPRPSLAKKQRFRHRNRKGYRSQRGHSRGRNQNSRRPSRATWLSLFSSEESNLGANNYDDYRMDWLVPATCEPIQSVFFFSGDKYYRVNLRTRRVDTVDPPYPRSIAQYWLGCPAPGHL
modifications: Vitronectin-derived Recombinant Protein (RCP-21)
Cell adhesion rate (%) (human iPS cells ("Tic")): 93.5 ± 7.9% | doubling time (iPS cells [1]; 250 cells/well, cultured for 8 days): 67.7 ± 2.1 h | number of cells on Day 8 of culture as fraction of the number with RCP-1 (iPS cells [1]; FIG. 2): about ⅓ | form of iPS cell colony (iPS cells [2]; TeSR2, subcultured every six days, FIGS. 3A to 3E): form specific to undifferentiated cells | NANOG expression (iPS cells [2]; cultured for 1 month in TeSR2, anti-NANOG staining, FIGS. 4A to 4E): strongly expressed NANOG in the entirety of the colony
